# Laboratory results as given in paper PMC4485320.
# Tests used:
# [1] = target: E. coli thioredoxin reductase (Escherichia coli) (UniProt P0A9P4)
# [2] = target: E. coli thioredoxin reductase (Escherichia coli) (UniProt P0A9P4); remark: listed apart in the source
# UniProt P0A9P4, sequence (P0A9P4 whole entry): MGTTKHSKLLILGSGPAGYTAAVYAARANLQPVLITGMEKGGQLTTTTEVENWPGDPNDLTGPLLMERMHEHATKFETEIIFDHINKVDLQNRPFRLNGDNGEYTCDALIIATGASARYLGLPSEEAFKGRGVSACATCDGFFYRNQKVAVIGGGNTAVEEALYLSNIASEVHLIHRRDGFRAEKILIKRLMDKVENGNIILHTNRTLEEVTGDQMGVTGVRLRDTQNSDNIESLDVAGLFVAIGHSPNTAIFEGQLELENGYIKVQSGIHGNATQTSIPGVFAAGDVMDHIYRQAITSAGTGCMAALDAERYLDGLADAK
substance,measurement,setting,value
"Escherichia coli thioredoxin, wild type (from UniProt P0AA25 1-109) (natural protein)","kcat of the reduction of the Trx variant by TrxR (Michaelis-Menten kinetics, DTNB/NADPH assay)",[1],10 s⁻¹
same,kcat/KM of the reduction of Trx by TrxR,[2],> 1e+06 M⁻¹ s⁻¹
